The record followed here is article PMC5973699.

Test [1] addresses MabSelect SuRe resin ligand (engineered Protein A; alkaline resistant protein A domain). As to the kind of experiment: capture on affinity resin.
For test [2], the target named is GammaBind Plus resin ligand (affinity improved protein G). As to the kind of experiment: capture on affinity resin.

On to mouse IgG1 (antibody), for which the binding capacity (µg mouse IgG1 per µL resin) in test [1] was 25.
For rat IgG2a (antibody), the Binding capacity (Batch Mode) (µg rat IgG2a /µL resin) in test [2] was determined as 15.
In test [1], human IgG1 (pertuzumab) (antibody) gave a binding capacity, tip column, 2 pipetting cycles of 37 µg; a binding capacity, tip column, 4 pipetting cycles of 46 µg; a binding capacity, tip column, 6 pipetting cycles (µg human IgG1 per µL of resin) of 52; a binding capacity, tip column, 8 pipetting cycles (µg human IgG1 per µL of resin) of 54. In test [1], this substance had a binding capacity, tip column, 9 pipetting cycles (µg human IgG1 per µL of resin) of 55 and a static binding capacity (batch mode) (µg human IgG1 per µL of resin) of 62.
